What was measured:
[1] = molecular target: human PD-1 expressed on cells (CHO TREX human PD1 cell line, full-length human PD-1 sequence) (human) (UniProt Q15116); test: cell-based or functional assay
[2] = molecular target: recombinant human PD-1 Fc chimera (human) (UniProt Q15116); test: SPR Biacore T200, single cycle kinetics, human Fc tagged PD-1 captured on Protein G, 1:1 model
[3] = molecular target: recombinant human PD-1 Fc chimera (human) (UniProt Q15116); test: SPR Biacore T200, single cycle kinetics, human Fc tagged PD-1 captured on Protein G, 1:1 model; second line of values in the continuation row of the name
[4] = molecular target: recombinant human PD-1 Fc chimera (human) (UniProt Q15116); test: HTRF binding assay, 2 nM recombinant PD1, anti His-D2 and anti human-Fc cryptate
[5] = molecular target: cynomolgus PD-1 recombinant protein (Acro Biosystems cat no. PD-1-C5254) (cynomolgus); test: as above
[6] = molecular target: Strep tagged recombinant human PD-1 (human) (UniProt Q15116); test: SPR Biacore T200, single cycle kinetics, Strep tagged human PD-1 amine coupled, 1:1 model
[7] = molecular target: human PD-1 expressed on cells (CHO TREX human PD1 cell line, full-length human PD-1 sequence) (human) (UniProt Q15116); test: FMAT: inhibition of human Fc tagged human PD-L1 (400 pM) binding to CHO human PD-1 cells

human PD-1 expressed on cells (CHO TREX human PD1 cell line, full-length human PD-1 sequence) (human), sequence (Q15116 21-288): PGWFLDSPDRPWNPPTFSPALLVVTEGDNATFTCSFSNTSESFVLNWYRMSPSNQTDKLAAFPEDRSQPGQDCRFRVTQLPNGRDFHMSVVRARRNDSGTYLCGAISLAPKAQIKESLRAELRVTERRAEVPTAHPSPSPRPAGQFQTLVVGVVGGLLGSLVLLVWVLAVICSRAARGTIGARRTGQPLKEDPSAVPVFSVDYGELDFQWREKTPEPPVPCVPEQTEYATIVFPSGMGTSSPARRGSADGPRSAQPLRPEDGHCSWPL
Strep tagged recombinant human PD-1 (human), sequence (Q15116 25-167 limits assumed): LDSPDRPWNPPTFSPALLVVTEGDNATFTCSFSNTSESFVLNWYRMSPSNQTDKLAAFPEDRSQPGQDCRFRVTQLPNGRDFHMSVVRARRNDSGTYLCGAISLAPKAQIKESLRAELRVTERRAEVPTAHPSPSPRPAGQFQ
recombinant human PD-1 Fc chimera (human), sequence (Q15116 25-167 limits assumed, stated change not applied): as the sequence (Q15116 25-167 limits assumed) above

EC50 (M), NFAT-Luciferase reporter gene assay [1]	Kd [2]	koff [2]	kon [2]	Kd [3]	koff [3]	kon [3]	EC50 [4]	EC50 [5]	Kd [6]	koff [6]	kon [6]	IC50 [7]	Binder
4.7e-09 M													1.92b-4GS-1.39a-4GS-MSA binder (protein, part only; not given: mouse serum albumin binder, part only) chain, part: EVQLVESGGGLVKPGGSLRLSCAASGFTFSDESMTWMRQAPGKGLEWVSYISSGGGVKFYADSVKGRFTISRDNAKNSLYLQMNSLRAEDTAVYYCAREAPLRLGESPHDAFDISGQGTMVTVSSGGGGSGGGGSGGGGSGGGGSEVQLVESGGGLVQPGRSLRLSCAASGFTFDDYALHWVRQAPGKDLEWVSGISWNGGSYGYADSVKGRFTISRDNAKNSLYLQMNSLRAEDTALYYCVREKGPGLTGSTADYYGLDAWGQGTMVTVSSGGGGSGGGGSGGGGSGGGGS
3.2e-09 M	8.06 pM	4.23e-06 s⁻¹	524000 M⁻¹ s⁻¹										1.57b-4GS-MSA binder-4GS-1.1a (protein, part only; not given: Middle albumin binder and linkers, not shown: another chain or arm of the molecule; large carriers; small tags and cut ends, In the real molecule both VH are parts of one polypeptide: 1.57b, 4GS (SEQ ID NO 1105), MSA binder VH, 4GS (SEQ ID NO 1105), 1.1a. They are given here as two separate chains because the middle domain has no letters.) VH 1: QVQLVESGGGLVKPGGSLRLSCAASGFTFSDNSMTWMRQAPGKGLEWVSYISSGGGVIFYADSVKGRFTISRDNAKNSLYLQMNSLRADDTAVYYCAREAPLRLGESPHDAFDISGQGTMVTVSS VH 2: EVQLLESGGGSVQPGRSLRLSCAASGFTFDDHAMHWVRQAPGKGLEWVSGISWNSGSMGYADSVKDRFTISRDNAKSSLYLQMNSLRAEDTALYYCVREKGPGLTGSTADYYGLDVWGQGTMVTVSS
2.5e-09 M	0.0517 pM	2.67e-08 s⁻¹	516000 M⁻¹ s⁻¹	0.0166 pM	1.32e-08 s⁻¹	793000 M⁻¹ s⁻¹	1 nM	1.6 nM	0.134 nM	4.68e-05 s⁻¹	349000 M⁻¹ s⁻¹	4.4 nM	1.57b-4GS-1.1a-4GS-MSA binder (protein, part only; not given: Albumin binder, second linker, His tag, not shown: another chain or arm of the molecule; large carriers; small tags and cut ends) QVQLVESGGGLVKPGGSLRLSCAASGFTFSDNSMTWMRQAPGKGLEWVSYISSGGGVIFYADSVKGRFTISRDNAKNSLYLQMNSLRADDTAVYYCAREAPLRLGESPHDAFDISGQGTMVTVSSGGGGSGGGGSGGGGSGGGGSEVQLLESGGGSVQPGRSLRLSCAASGFTFDDHAMHWVRQAPGKGLEWVSGISWNSGSMGYADSVKDRFTISRDNAKSSLYLQMNSLRAEDTALYYCVREKGPGLTGSTADYYGLDVWGQGTMVTVSS
